The values below come from patent US20220049012A1 (NAVI BIO THERAPEUTICIS, published 2022).

Numbering of substitutions follows the chain as printed.

The target in test [1] is recombinant CAIX extra-cellular domain (UniProt Q16790 38-414). Kind of test: competitive ELISA (Friguet), soluble CAIX ECD against coated CAIX ECD. The protocol:
To determine the binding affinity of the anti-CAIX scFvs, competitive ELISA was performed. The CAIX ECD fragment proteins in 2-fold serial dilution (100-13 μg/ml) were pre-incubated with anti-CAIX scFvs (NAVICA9S1: 0.62 μg/ml, NAVICA9S2: 0.32 μg/ml,
NAVICA9L2: 0.16 μg/ml, NAVICA9L3: 0.32 μg/ml) at 1:1 volume ratio at room temperature for 1 hour. The mixtures were then added into ELISA plate coated with CAIX ECD fragment proteins (0.25 or 0.5 μg/well). After 1 hour incubation, the mouse anti-HA IgG (1:5,000) and HRP-conjugated rabbit anti-mouse IgG (1:10,000) were added as the secondary and third antibodies. Following the incubation and washing, 3,3′,5,5′-Tetramethylbenzidine (TMB) was added for color development, which was stopped by HCl and detected using an ELISA plate reader. The Kd values of scFvs were estimated and expressed by molarity (M) as described by Friguet et al. (J. Immunol. Methods, 77: 305-319, 1985). N/A: not available.
For orientation: An ELISA detects its analyte on a solid surface through an enzyme-linked reagent.

For test [2], the target named is recombinant CAIX fragment 2 (UniProt Q16790 154-353). Kind of test: binding to recombinant CAIX fragments, epitope mapping.
The target in test [3] is T1, recombinant CAIX fragment 3 (UniProt Q16790 228-414, limits assumed).
T1 construct: domain: fragment 3(F3); Expressed in E. coli from pET-21a(+) or pET-32a(+); also called F3; CAIX F3
The test is described as above.

B1: NAVICA9S1 (scFv, V domains shown)
VH: AVTLDESEGGLQTPGGALSLVCKASGFTFSSYAMNWVRQAPGKGLEFVAGITNTGSSAGYGAAVKGRATISRDNGQSTVRLQLNNLRAEDTATYFCTKSYGGWCDHACAPDDIDTWGHGTEVIVSS
VL: ALTQPSSVSANPGETVKITCSGGGKNYGWYQQKSPGSAPVTVIYLNDKRPSNIPSRFSGSKSGSTHTLTITGVQAEDEAVYFCGSRDSSPTFGAGTTLTVL
notes: Chicken scFv from phage display, expressed in E. coli; also called anti-CAIX scFv NAVICA9S1; clone NAVICA9S1; not shown: linker; tags from the pComb3X vector (purified on Ni2+ Sepharose, detected with anti-HA)
Take B1: in test [1], the Kd (as a rule, the equilibrium constant for the complex coming apart) amounted to 64.3 nM.

B2: NAVICA9S2 (scFv, V domains shown)
VH: AVTLDESGGGLQTPRGALSLVCKASGFTFSSFNMFWVRQAPGKGLEYVAAISSDGSRSRYGSAVQGRATISRDNGQSTVRLQLNSLRAEDTGTYYCAKRPYSGCTSNNFCFNAAYIDVWGHGTEVIVSS
VL: ALTQPSSVSANLGETVEITCSGSSGSYGWYQQKSPGSAPVTVIYYNDKRPSDIPSRFSGSKSGSTGTLTITGVQAEDEAVYYCGSADRSGAGIFGAGTTLTVL
notes: Chicken scFv; also called anti-CAIX scFv NAVICA9S2; clone NAVICA9S2; not shown: linker; tags from the pComb3X vector (purified on Ni2+ Sepharose, detected with anti-HA)
Consider B2, for which the dissociation constant (Kd) in test [1] was 11.5 nM.

B3: NAVICA9L2 (scFv, V domains shown)
VH: AVTLDESGGGLQTPGGGLSLVCKASGFTFSSYAIQWVRQAPGKGLEWVAGISDDGSWTGYGAAVKGRATISRDNGQSTMRLQLNNLRAEDTGIYYCAKGAGTGYCANRSFGCASTIDAWGHGTEVIVSS
VL: B2 VL with S24R, D47V
notes: Chicken scFv; also called anti-CAIX scFv NAVICA9L2; clone NAVICA9L2; not shown: linker; tags from the pComb3X vector (purified on Ni2+ Sepharose, detected with anti-HA)
As for B3, the binding result in test [2] and in test [3] was “no binding” in each case. For the same molecule, the Kd in test [1] was 140 nM.

B4: NAVICA9L3 (scFv, V domains shown)
VH: B2 VH with R15G
VL: B2 VL
notes: Chicken scFv; also called anti-CAIX scFv NAVICA9L3; clone NAVICA9L3; not shown: linker; tags from the pComb3X vector (purified on Ni2+ Sepharose, detected with anti-HA)
Consider B4, for which the Kd in test [1] stood at 9.26 nM.
